In data set [1] the target is T1, NHR-23 (recombinant, Strep-SUMO tag cleaved) (C. elegans, UniProt P41828 1-588).
T1 sequence (looked up): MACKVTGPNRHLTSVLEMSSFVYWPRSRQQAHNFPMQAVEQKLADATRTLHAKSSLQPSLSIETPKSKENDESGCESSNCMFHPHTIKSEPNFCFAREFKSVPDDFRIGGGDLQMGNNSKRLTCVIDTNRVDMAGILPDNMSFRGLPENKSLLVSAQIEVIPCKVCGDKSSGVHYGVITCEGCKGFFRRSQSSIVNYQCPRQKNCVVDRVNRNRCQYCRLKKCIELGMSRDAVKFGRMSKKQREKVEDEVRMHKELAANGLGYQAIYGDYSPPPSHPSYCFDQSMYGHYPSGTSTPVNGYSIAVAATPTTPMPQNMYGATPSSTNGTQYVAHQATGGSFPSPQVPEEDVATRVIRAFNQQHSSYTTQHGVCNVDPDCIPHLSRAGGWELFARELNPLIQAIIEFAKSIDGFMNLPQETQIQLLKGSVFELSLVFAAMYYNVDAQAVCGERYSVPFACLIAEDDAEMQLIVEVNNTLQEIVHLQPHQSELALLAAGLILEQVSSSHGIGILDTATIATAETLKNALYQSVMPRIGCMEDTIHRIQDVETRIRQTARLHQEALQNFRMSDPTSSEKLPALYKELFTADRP
Nature of the data set: MST.

In data set [2] the target is T2, NHR-23;NHR-85 (Caenorhabditis elegans;Caenorhabditis …, UniProt P41828;Q9XUK7 1-588;1-514, |).
T2 sequence 1: T1 sequence (looked up)
T2 sequence 2: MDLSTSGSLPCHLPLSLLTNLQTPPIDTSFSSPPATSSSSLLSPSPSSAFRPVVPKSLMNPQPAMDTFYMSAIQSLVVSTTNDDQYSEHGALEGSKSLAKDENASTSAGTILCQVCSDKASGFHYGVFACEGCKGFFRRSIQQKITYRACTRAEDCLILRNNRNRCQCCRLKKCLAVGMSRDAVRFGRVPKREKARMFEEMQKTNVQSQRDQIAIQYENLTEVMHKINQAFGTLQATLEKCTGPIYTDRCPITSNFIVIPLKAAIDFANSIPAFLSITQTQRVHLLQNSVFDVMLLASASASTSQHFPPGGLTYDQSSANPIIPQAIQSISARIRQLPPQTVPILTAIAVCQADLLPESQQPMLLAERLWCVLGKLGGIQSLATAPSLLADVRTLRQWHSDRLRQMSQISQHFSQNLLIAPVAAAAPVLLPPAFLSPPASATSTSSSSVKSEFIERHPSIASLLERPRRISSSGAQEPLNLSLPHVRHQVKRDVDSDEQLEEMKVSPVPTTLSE
Nature of the data set: EMSA.

Data set [3] has as its target T2, NHR-23;NHR-85. Nature of the data set: EMSA. The source holds these as a separate data set. Background: Mobility shift assays separate free from complexed probe on a gel.
Data set [4] addresses T2, NHR-23;NHR-85. Nature of the data set: EMSA. The source holds these as a separate data set.

Read-outs that look alike come from different tables or passages of the source.

By Kd is commonly meant a measure of binding affinity in units of concentration.

B1: Strep2-NHR-85 (natural protein, C. elegans, UniProt Q9XUK7 1-514, looked up)
chain: T2 sequence 2
modifications: AlexaFluor647 NHS Ester label (in the microscale thermophoresis assay only)
Turning to B1, in data set [1], the Kd was determined as 5.8 nM.

B2: Mut_DR2 (dsDNA)
DNA 1: ACAAATTGAGGTCAGTCCCTGTCTA
DNA 2: TAGACAGGGACTGACCTCAATTTGT
Regarding B2, the binding result with NHR-23;NHR-85 [2] was “no binding”.

B3: Proximal (25 bp) (dsDNA)
DNA 1: CGAAGCGACCGAATGACCCAGTCTC
DNA 2: GAGACTGGGTCATTCGGTCGCTTCG
In the case of B3, in the data set with NHR-23;NHR-85 [3], the binding result was “binds”.

B4: wtLIN-4_23_85 (PCE direct repeat, 25 bp) (dsDNA)
DNA 1: ACAAATTGAGGTCAGTCGGTCAGTA
DNA 2: TACTGACCGACTGACCTCAATTTGT
For B4, in the data set with NHR-23;NHR-85 [4], the binding result was “binds”.

B5: Mut_DR1 (dsDNA)
DNA 1: ACAAATTGACCTGTGTCGGTCAGTA
DNA 2: ACTGACCGACACAGGTCAATTTGT
As to B5, the binding result with NHR-23;NHR-85 [2] is “no binding”.
